For assay [1], the target named is T1, human TPBG-hFc (human, UniProt Q13641 32-355).
T1 construct: also called immunogen A; hFc tagged TPBG protein; not shown: The human IgG Fc fragment of the pCpC vector (Invitrogen V044-50) and any linker to it
T1 sequence: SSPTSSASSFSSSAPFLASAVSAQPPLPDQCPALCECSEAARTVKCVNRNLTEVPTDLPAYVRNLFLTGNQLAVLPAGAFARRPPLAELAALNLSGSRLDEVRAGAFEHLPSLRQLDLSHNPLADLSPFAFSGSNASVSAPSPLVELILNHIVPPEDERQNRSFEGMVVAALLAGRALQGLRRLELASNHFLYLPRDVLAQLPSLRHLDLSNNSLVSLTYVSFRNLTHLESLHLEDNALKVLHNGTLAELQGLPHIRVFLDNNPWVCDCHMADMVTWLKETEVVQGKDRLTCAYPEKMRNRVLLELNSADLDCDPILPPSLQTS
As to the kind of experiment: ELISA, coated human TPBG-hFc 1.0 ug/mL; antibody 200 nM. Here is the method:
(§1) The purified immunogen A (as for its method of preparation please refer to step 1 in Example 1) diluting with PBS to a final concentration of 1.0 μg/mL was aliquoted into a 96-well ELISA plate at 100 μL per well, and sealed with a parafilm and incubated at 4° C. overnight. The plate was washed twice with plate washing buffer (PBS containing 0.01% (v/v) Tween 20), and blocked with blocking buffer (PBS containing 0.01% (v/v) Tween 20 and 1% (w/w) BSA) at room temperature for 2 h. The blocking buffer was discarded, and 100 μL per well of the purified antibody obtained from Embodiment 2 was added. After incubating at 37° C. for 2 h, the plate was washed for three times with plate washing buffer (PBS containing 0.01% (v/v) Tween 20). HRP (horseradish peroxidase)-labeled secondary antibody (purchased from Sigma) was added and incubated at 37° C. for 2 h, and the plate was washed for three times using plate washing buffer (PBS containing 0.01% (v/v) Tween 20). 100 μL of TMB substrate was aliquoted into each well, incubated at room temperature for 30 min, and 100 μL of stop buffer (1.0N HCl) per well was subsequently added. A₄₅₀ₙₘ values were read using the ELISA plate reader (SpectraMax 384plus purchased from Molecular Device), and the results were shown in FIG. 6 and table 6. […] In Table 6 the IgG control herein is a mice IgG control, the data in the Table are OD₄₅₀ₘₙ values, and Blank means the OD₄₅₀ₘₙ value when there is only PBS buffer in the plate.

Assay [2] concerns the target T1, human TPBG-hFc. As to the kind of experiment: ELISA, coated human TPBG-hFc 1.0 ug/mL; antibody 2 nM. Here is the method:
as §1

For assay [3], the target named is T2, biotinylated recombinant TPBG protein (Homo sapiens (Human), UniProt Q13641 32-355, Biotinylated; the number and positions of the biotin labels are not stated and the letters do not carry them.).
T2 sequence: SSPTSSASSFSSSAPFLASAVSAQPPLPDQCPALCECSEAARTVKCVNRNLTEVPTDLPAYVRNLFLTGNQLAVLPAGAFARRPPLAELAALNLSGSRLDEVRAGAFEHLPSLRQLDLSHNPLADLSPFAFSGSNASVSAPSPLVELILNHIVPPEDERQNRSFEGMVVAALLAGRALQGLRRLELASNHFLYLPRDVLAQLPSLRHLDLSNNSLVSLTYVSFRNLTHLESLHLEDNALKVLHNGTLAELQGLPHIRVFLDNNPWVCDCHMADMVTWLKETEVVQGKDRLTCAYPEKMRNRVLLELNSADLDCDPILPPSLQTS
Kind of assay: competitive ELISA; row antibody 5 ug/mL; competitor: coated 103E2E9C2. Here is the method: (§2) The purified antibodies to be tested were diluted to 1 μg/mL using PBS, and coated with high-adsorption of 96-well microplates at […]. After overnight coating at 4[…], 250 μL of blocking buffer (PBS containing 0.01% (v/v) Tween20 and 1% (w/w) BSA) was added to block coating at room temperature for 1 h, and 0.05 μg/mL of biotinylated recombinant TPBG protein was added to each well. Meanwhile, 5 μg/mL final concentration of competitive antibodies, i.e. the purified antibodies obtained from Embodiment 2 with the clone number of 12B12C7C3, 5G4H10G5, 37H9C5G2, 39A11G5F2, 52C9E9F6, 28D4E6A9, 36A10D8B12, 99E12C7H1, 103E2E9C2 and 106D5G3D10 were added and incubated at 25-37° C. for 1-2 h. The plates were washed three times with plate-washing buffer (PBS containing 0.01% (v/v) Tween20) and HRP (horseradish peroxidase)-labeled streptavidin (purchased from Sigma) was added. After incubating at 37° C. for 0.5 h, the plates were washed three times with plate-washing buffer (PBS containing 0.01% (v/v) Tween20), and 100 μL of TMB substrate was added to each well and the plates were further incubated at room temperature for 30 min prior to adding 100 μL of stop buffer (1.0N HCl) to each well. A₄₅₀ₙₘ values were read using an ELISA microplate reader (SpectraMax 384plus purchased from Molecular Device) and results were shown in FIG. 6. The higher the values of the competition rate, the closer the antigen surface of the two antibodies are.

Assay [4] concerns the target T2, biotinylated recombinant TPBG protein. Kind of assay: competitive ELISA; row antibody 5 ug/mL; competitor: coated 5G4H10G5. Here is the method: as §2
Assay [5] addresses T1, human TPBG-hFc. Kind of assay: ELISA, coated human TPBG-hFc 1.0 ug/mL; antibody 0.002 nM. Here is the method:
as §1

The target of assay [6] is T2, biotinylated recombinant TPBG protein. As to the kind of experiment: competitive ELISA; row antibody 5 ug/mL; competitor: coated 39A11G5F2. Here is the method:
as §2

B1: 12B12C7C3 (antibody, V domains shown)
VH: DVQLVESGGGLVQPGGSRKLSCAASGFTFSNFGMHWVRQAPEKGLEWVAYISSGSTSFYYADTVKGRFTISRDNPKNTLFLQMTSLRSEDTAMYYCSRTNSLLRGFFDAWGAGTTVTVSS
VL: DIVLTQSPASLAVSLGQRATISCRASQSVSSSSYTYLHWYQQKPGQPPKLLIKSASNLESGVPARFSGTGSGTDFTLNIHPVEEEDTATYYCQHSWEIPLTFGAGTKLELK
notes: Mouse hybridoma antibody purified from culture supernatant; also called TPBG antibody; lead antibody
With B1, the values for the OD450nm in the assay with human TPBG-hFc [1], with human TPBG-hFc [2] and in the assay with human TPBG-hFc [5] were 2.82 OD450nm, 2.84 OD450nm and 0.13 OD450nm, respectively. For the same molecule, the results for the competition rate in assay [3], in assay [4] and in assay [6] were 0%, 47% and 0%, respectively.

The values above are taken from patent US20210198377A1 (XDCEXPLORER SHANGHAI, published 2021).
